This is an account of results in US20240368283A1 (published 2024).

Usually Kd stands for the free concentration of one partner at which half of the binding sites on the other are occupied at equilibrium, for simple one-to-one binding. A lower Kd goes with higher affinity. One may read the koff as a measure of how fast the partners let go of each other. Low values mean slow dissociation, high ones fast dissociation. The kon is the second-order rate constant of association.

T1: huFcγRIIβ (human, UniProt P31994 46-217)
T1 construct: also called huR2b; human FcγRIIβ (soluble antigen)
T1 sequence (looked up): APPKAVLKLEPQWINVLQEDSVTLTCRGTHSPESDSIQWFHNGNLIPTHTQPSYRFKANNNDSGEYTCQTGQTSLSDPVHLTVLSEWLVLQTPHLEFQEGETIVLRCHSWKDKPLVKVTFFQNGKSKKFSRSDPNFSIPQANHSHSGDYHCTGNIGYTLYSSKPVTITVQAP

T2: huFcγRIIα (R131) (human, UniProt P12318 36-218)
T2 construct: R131 allotype; also called human FcγRIIα R131 (soluble antigen)
T2 sequence (looked up): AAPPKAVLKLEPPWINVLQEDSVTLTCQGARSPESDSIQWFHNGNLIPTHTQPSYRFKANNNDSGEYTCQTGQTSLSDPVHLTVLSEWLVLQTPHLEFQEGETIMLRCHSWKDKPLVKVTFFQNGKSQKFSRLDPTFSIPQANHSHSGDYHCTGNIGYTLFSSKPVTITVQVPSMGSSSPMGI

B1: TA39 (bispecific antibody, human IgG1, kappa)
heavy: not shown
light: DIQMTQSPSSLSASVGDRVTITCQASQSPNNLLAWYQQKPGKAPKLLIYGASDLPSGVPSRFSGSGSGTDFTLTISSLQPEDFATYYCQNNYYVGPVSYAFGGGTKVEIKRTVAAPSVFIFPPSDEQLKSGTASVVCLLNNFYPREAKVQWKVDNALQSGNSQESVTEQDSKDSTYSLSSTLTLSKADYEKHKVYACEVTHQGLSSPVTKSFNRGEC
B2: TA25 (bispecific antibody, human IgG1, kappa)
heavy: not shown
light: B1 light
B3: TA36 (bispecific antibody, human IgG1, kappa)
heavy: not shown
light: B1 light
B4: TA28 (bispecific antibody, human IgG1, kappa)
heavy: not shown
light: B1 light
B5: TA28 (bispecific antibody, human IgG1, kappa)
heavy: not shown
light: B1 light
B6: TA39 (bispecific antibody, human IgG1, kappa)
heavy: not shown
light: B1 light
B7: TA26 (bispecific antibody, human IgG1, kappa)
heavy: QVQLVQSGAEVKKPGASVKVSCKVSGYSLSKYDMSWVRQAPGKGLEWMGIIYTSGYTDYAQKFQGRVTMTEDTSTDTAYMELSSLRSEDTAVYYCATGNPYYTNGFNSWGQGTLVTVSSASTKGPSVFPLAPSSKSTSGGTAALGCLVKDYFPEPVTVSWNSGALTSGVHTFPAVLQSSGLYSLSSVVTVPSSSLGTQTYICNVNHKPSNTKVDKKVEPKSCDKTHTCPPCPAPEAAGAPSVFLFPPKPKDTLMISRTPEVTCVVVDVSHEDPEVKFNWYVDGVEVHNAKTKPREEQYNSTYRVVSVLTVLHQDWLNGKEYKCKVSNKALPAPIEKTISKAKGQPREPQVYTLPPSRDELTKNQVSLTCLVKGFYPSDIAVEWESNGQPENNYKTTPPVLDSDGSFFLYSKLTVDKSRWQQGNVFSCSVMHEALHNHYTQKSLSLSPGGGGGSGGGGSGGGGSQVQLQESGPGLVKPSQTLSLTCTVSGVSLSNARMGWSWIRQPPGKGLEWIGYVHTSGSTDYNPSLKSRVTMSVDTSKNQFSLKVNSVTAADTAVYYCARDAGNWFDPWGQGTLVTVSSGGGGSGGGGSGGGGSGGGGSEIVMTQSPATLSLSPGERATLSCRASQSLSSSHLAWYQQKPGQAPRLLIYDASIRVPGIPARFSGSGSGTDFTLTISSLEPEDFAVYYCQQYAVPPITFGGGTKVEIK
light: B1 light
B8: TA36 (bispecific antibody, human IgG1, kappa)
heavy: not shown
light: B1 light
B9: TA25 (bispecific antibody, human IgG1, kappa)
heavy: not shown
light: B1 light
B10: TA30 (bispecific antibody, human IgG1, kappa)
heavy: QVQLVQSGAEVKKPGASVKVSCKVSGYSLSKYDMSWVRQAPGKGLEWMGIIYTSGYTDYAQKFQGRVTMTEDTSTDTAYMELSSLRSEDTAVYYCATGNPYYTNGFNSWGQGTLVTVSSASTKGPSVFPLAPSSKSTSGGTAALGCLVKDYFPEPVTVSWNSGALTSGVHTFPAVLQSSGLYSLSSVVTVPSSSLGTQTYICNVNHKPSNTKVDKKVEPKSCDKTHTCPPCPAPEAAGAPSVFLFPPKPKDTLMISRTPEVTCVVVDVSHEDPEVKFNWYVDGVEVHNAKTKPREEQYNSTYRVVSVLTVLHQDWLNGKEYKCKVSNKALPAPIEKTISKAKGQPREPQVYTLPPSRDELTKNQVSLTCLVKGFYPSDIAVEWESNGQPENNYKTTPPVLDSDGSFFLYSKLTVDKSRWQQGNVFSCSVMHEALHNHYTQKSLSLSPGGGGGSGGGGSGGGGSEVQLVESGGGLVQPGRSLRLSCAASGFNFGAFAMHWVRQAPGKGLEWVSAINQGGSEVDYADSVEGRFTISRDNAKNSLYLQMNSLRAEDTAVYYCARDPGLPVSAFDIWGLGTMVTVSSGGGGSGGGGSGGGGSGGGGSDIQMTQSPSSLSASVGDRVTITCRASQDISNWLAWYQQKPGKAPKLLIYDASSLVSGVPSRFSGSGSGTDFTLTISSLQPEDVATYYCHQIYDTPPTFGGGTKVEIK
light: B1 light

human FcγRIIIα, sequence (P08637 17-208 limits assumed): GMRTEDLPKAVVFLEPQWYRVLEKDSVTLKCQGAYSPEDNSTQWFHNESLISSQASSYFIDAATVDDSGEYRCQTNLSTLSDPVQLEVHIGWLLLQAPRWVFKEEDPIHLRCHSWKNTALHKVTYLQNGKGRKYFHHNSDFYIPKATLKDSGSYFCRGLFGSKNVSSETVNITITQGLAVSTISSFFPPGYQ
human FcγRI, sequence (P12314 16-288 limits assumed): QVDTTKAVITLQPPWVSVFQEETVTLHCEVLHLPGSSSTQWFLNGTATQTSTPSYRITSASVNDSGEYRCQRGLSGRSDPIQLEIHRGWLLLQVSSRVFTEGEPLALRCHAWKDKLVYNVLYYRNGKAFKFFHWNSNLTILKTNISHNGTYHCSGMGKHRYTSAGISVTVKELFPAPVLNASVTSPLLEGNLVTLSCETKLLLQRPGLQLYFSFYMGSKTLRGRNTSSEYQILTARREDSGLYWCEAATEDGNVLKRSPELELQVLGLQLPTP

The target of one assay is T3, FcRN.
T3 construct: also called neonatal Fc receptor
T3 sequence (P55899 24-297, chain 1 of 2): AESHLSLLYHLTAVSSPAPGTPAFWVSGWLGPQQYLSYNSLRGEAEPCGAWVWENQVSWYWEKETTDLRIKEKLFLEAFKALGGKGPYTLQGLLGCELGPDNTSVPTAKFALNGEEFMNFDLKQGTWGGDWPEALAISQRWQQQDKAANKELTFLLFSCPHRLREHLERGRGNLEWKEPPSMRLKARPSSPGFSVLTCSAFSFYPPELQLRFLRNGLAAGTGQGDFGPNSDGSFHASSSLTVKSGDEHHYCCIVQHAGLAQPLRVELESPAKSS
T3 sequence (P61769 21-119, chain 2 of 2, further chain): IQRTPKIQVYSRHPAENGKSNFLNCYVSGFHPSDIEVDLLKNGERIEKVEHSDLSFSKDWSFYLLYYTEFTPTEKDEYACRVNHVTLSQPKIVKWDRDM
Put plainly: BLI (AHC biosensors by Example 20); table headed FcRN Binding.
B1 displayed a Kd of 250 nM, a koff of 0.1 s⁻¹ and a kon of 400000 M⁻¹ s⁻¹.
B2 returned a dissociation constant (Kd) of 231 nM, a koff of 0.0788 s⁻¹ and a kon of 341000 M⁻¹ s⁻¹.
The matching figures for B3: 289 nM, 0.118 s⁻¹ and 407000 M⁻¹ s⁻¹.
With B4, the Kd was 273 nM, the koff amounted to 0.103 s⁻¹ and the kon came out at 378000 M⁻¹ s⁻¹.

The target in the next assay is T1, huFcγRIIβ. Put plainly: BLI, antibody captured on AHC biosensors, receptor in solution. The procedure:
(§1) Example 19: Anti-FcγRIIβ antibodies were captured on AHC biosensors at a concentration of 5 μg/mL. Antigens (FcγRIIα/FcγRIIβ) were serially diluted two-fold with a starting concentration of 5u M. The biosensors with immobilized antibodies were dipped into the different antigen concentrations and kinetics data were collected.
On the technique in general: Biolayer interferometry detects binding as a change in optical thickness at a sensor tip.
Molecule B1 returned a Kd of 30.3 nM. This lies in the double-digit nanomolar range.
Same read-out and setting: next, B2: 122 nM.
For B3, the Kd was determined as 45 nM. This Kd is about 2.7-fold lower than that of the molecule before.
Turning to B4, the Kd was 11 nM.

In a further assay the target is T2, huFcγRIIα (R131). Described as above. The procedure: as §1
B1 registered a Kd of 115 nM. In other words, the sub-micromolar range.
Same read-out and setting: next, B2: 114000 nM; B3: 141 nM; B4: 623 nM.

For a further assay, the target named is T1, huFcγRIIβ. Put plainly: BLI; ratio of the KD for huFcγRIIα (R131) to the KD for huFcγRIIβ. The procedure: as §1
In the case of B1, the Fold selectivity was 4 fold.
Take B2: the Fold selectivity was 934 fold.
Still for that read-out and setting: next, B3: 3 fold; B4: 56 fold.

For another assay, the target named is human FcγRI (human, UniProt P12314 16-288, limits assumed). Briefly: BLI, antibody captured on AHC biosensors, receptor in two-fold dilutions. The procedure:
(§2) Example 20: Anti-FcγRIIβ antibodies were captured on AHC biosensors at a concentration of 5 μg/mL. Antigens (FcγRI or FcγRIIIα) were serially diluted two-fold with a starting concentration of 5 μM. The biosensors with immobilized antibodies were dipped into the different antigen concentrations and kinetics data were collected.
As for B5, the binding result is on record as “no binding (tested: 5 µM starting concentration)”.
Same read-out and setting: next, B6: “no binding (tested: 5 µM starting concentration)”; B7: “no binding (tested: 5 µM starting concentration)”; B8: “no binding (tested: 5 µM starting concentration)”.
As for B9, the binding result was “no binding (tested: 5 µM starting concentration)”.

A further assay addresses human FcγRIIIα (human, UniProt P08637 17-208, limits assumed). The description is as above. The procedure:
as §2
Turning to B5, the binding result is on record as “no binding (tested: 5 µM starting concentration)”.
On the same count and under the same terms, the value for B6 was “no binding (tested: 5 µM starting concentration)”.
Turning to B7, the binding result is “no binding (tested: 5 µM starting concentration)”.
B8: the binding result was “no binding (tested: 5 µM starting concentration)”.
Take B9: the binding result was “no binding (tested: 5 µM starting concentration)”.

In another assay the target is T1, huFcγRIIβ. Put plainly: SPR, antibody captured on protein A/G chip, receptor injected as analyte. The procedure: (§3) Example 21: Anti-FcγRIIβ antibodies were captured on protein A/G chips at 10 ug/mL, 1 ug/mL and 0.1 ug/mL concentrations (in duplicates). Each analyte binder was injected at 7 concentrations with 5-fold serial dilutions, with the starting concentration for FcγRs at 5 uM, and for PD-1 at 0.5 uM. […] Kinetics data was subsequently collected.
In general terms: In SPR one partner is held on a chip, and binding of the other changes the refractive index at the surface.
For B10, the affinity, expressed as Kd, was 56.1 nM.
For B2, the Kd was determined as 253 nM.
Same read-out and setting: next, B3: 299 nM.

The target of another assay is T4, CyR2b (monkey).
T4 construct: also called monkey FcγRIIβ; Cy FcγRIIβ
The assay is described as above. The procedure: as §3
B10: the affinity, expressed as Kd, was 1210 nM.
Molecule B2 gave a Kd of 1500 nM.
Same read-out and setting: the value for B3 was 3660 nM.

The target in another assay is T5, CyR2a (monkey).
T5 construct: also called monkey FcγRIIα; Cy FcγRIIα
The description is as above. The method, then: as §3
Regarding B10, binding was characterised by a dissociation constant (Kd) of 1120 nM.
Same read-out and setting: the value for B2 was 777 nM.
The same measure, in the same setting: the value for B3 was 2300 nM.

Another assay has as its target huR2a (human, UniProt P12318 36-218). The description is as above. The method, then:
as §3
In turn, B10 displayed a Kd of 633 nM.
The same measure, in the same setting: next, B2: 6080 nM; B3: 4060 nM.
